The record followed here is patent publication US20160130324A1.

Broadly, the IC50 is the concentration that inhibits the measured activity by half.

In the assay the target is rhC1s (human) (UniProt P09871). Briefly: inhibition of C1s cleavage of a colorimetric peptide substrate, mean OD value; C is the midpoint of the 4-parameter fit.
rhC1s (human), sequence (P09871 16-688 limits assumed): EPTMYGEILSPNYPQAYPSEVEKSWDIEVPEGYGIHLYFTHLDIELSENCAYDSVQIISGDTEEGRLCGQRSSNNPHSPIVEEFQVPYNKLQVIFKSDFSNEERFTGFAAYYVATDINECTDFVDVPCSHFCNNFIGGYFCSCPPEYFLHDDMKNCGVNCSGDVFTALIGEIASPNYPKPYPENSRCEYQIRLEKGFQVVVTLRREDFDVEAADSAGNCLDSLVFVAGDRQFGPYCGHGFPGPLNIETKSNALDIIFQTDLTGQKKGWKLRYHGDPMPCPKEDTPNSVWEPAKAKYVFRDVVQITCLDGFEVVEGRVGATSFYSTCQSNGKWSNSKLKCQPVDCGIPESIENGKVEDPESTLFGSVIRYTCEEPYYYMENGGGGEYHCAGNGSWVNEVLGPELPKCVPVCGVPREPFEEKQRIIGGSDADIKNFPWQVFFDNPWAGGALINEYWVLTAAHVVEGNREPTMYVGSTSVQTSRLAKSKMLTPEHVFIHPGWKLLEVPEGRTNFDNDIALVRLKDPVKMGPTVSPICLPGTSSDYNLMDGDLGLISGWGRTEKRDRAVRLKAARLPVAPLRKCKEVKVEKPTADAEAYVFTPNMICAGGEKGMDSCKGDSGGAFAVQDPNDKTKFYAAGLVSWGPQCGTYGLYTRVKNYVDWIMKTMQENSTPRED

Regarding HSA-C1-INH, the IC50 was determined as 1.67 nM.
On to HSA_D3-C1-INH, for which the IC50 came to 1.45 nM.
